In a protein production outcome set (Wang et al. 2014):

Assay: label from the status in PepcDB records

**Q.** Which protein production does the source give for “MKHLVICIALLTVGACCFAQQKKVASHKAASGNPVFQGWYADPEGIIYDDTYWIFPTWSDLYENQTFFDCFSSKDLVNWTKHASVLDTTAVKWAKKAMWAPSVIRKNGKYYIFFGANDVHEGEIGGIGVAVSDRPEGPYKDLLGKPLINEIVNGAQPIDQFVYNDNGHYYMYYGGWGHCNVVQLNDDFTGLVPFEDGTVYKEVTPENYVEGPFMFKKDGKYYFMWSEGGWGGPDYSVAYAISDSPFGPFKRVAKILQQDPSVATSAGHHSLLHAPGTDDYYIVYHRRPLNDNARDHRVTCIDKMTFDKDGFINPVKMTFEGVPAQKIKKSKKK” here?
**A.** The protein production was “failed”.

**Q.** Which protein production does the source give for “MKHYEVEILDAKTREKLCFLDKVEPHATIAEIKNLFTKTHPQWYPARQSLRLDPKGKSLKDEDVLQKLPVGTTATLYFRDL” here?
**A.** The protein production was “not failed”.

**Q.** For “MKIAIIRKIPTRPEQISRPSHSARAGPETHCSMPCGFAASRKAGRIAVKETIKEIVMGMLVEGVWKDVWYDTKETKGHFKRSASQFRNWVTVDGAVGPSGEGGFEAEKDRYHLYVSFACPWAHRTLIFRKLKKLEDLISVSVVDPLMLENGWEFKPEGERTPGATQDHLFGSSTLWQVYTKADPTYSGRVTVPVLWDKKRGTIVSNESAEIIRMFNVAFNDLTGSDADYYPKALRAEIDALNDVIYDTVNNGVYKAGFATTQDAYQQNAVKVFETLDMLEDRLKDRRFLFGSEQTEADWRLFTTLVRFDPVYVGHFKCNIRRIHDYPHLTGYLRDLYQTPGVPDTVDMRHIKEHYYRSHRTINPTGIVPIGPELDLTMAHGREALS”, which protein production is on record?
**A.** Its protein production is “failed”.

**Q.** Which protein production does the source give for “MKIAILYREEREKEGEFLKEKISKEHEVIEFGEANAPGRVTADLIVVVGGDGTVLKAAKKAADGTPMVGFKAGRLGFLTSYTLDEIDRFLEDLRNWNFREETRWFIQIESELGNHLALNDVTLERDLSGKMVEIEVEVEHHSSMWFFADGVVISTPTGSTAYSLSIGGPIIFPECEVLEISPIAPQFFLTRSVVIPSNFKVVVESQRDINMLVDGVLTGKTKRIEVKKSRRYVRILRPPEYDYVTVIRDKLGYGRRIE” here?
**A.** The protein production was “not failed”.

**Q.** For “MKIAIVGSGNGAVTAAVDMVDKGHDVRLYCRNESISKFDVALEKGGFDFYNEGEEKFIEFTDISDDMEYVLDGADIVQVIIPSSFIEYYAKVMSKFVTNDHLIFFNIAASMGSIRFMNVLEDRHIDVHPHFAEANTLTYGTRVDFNNAKVDLSLNVRRVFFSTFDRSELNESYEKVSKIYDYLVKEESLLKTNL”, which protein production is on record?
**A.** The protein production was “failed”.

**Q.** For “MKIALINENSQASKNHIIYDSLKEATDKKGYQLFNYGMRGEEGESQLTYVQNGLMAAILLNTKAVDFVVTGCGTGVGAMLALNSFPGVVCGLAVDPTDAYLYSQINGGNALSIPYAKGFGWGAELTLKLMFERLFAEEMGGGYPRERVIPEQRNARILNEVKQITHNDLMTILKIIDQDFLKDTISGKYFQEYFFENCQDDEVAAYLKEVLA”, which protein production is on record?
**A.** Its protein production is “failed”.

**Q.** With “MKIATTSSAFDLLPKDQKYKTKRVSYNDFSDLSFLPVVNPKIKRQKKTLEEEVDSTSKAKSSRTSLTKSVTTTTKLTKPEETITASSKECLQETKTNKKPDLRDLIAKAQEKIQNKREINHRREYITRQRIAARLALNQMVATVSFDDHLNYHREMEQRGYTFIQDQVDNLNMFSLWSRSDYNGITNSVLETSNTTMRSDEDSSRKKQQIIKKKSNTFPTDVKEH” as the sequence, how does the protein production read?
**A.** Its protein production is “failed”.

**Q.** Which protein production does the source give for “MKIATYNVRVDTEYDQDWQWSFRKEAVCQLINFHDWSLCCIQEVRPNQVRDLKAYTTFTCLSAEREGDGQGEGLAILYNEQKVQAIDTGYFWLSETPQQPSIHPEAGCPRIALWGLFKETTQNTPFLVINVHLDHISAHARLAGMTVILEELHDKIAQYPTLLMGDFNAESGEEVHQLVQKKFQDSKNLATHYGPRGTFQNFTYTKPWAELEEIDYIYVKGWQVQQTASLTDSIDGRFPSDHFPLEAEVCIEE” here?
**A.** Its protein production is “failed”.

**Q.** With “MKIAVVGGTGLVGQGILLELSKDTTLELHSISRNGKRPNSIAGVNYHSFDLAHDTSWHSLLQTSDWVIDCVGILLPNKSKNQTYENSSIEPAKLIIDSIANFDNKFLFISANSAPFFLNNYLHAKRTVENYASRKLGNRAISVYPGLVYSKFRRSNYYPAVILDFLLKFKLFSFLRKFRPISRERFAKEIHYIIEGKNSSLTYRI” as the sequence, how does the protein production read?
**A.** The protein production was “failed”.

**Q.** With “MKIEHVALWTTNLEQMKQFYVTYFGATANDLYENKTKGFNSYFLSFEDGARLEIMSRTDVTGKTTGENLGWAHIAISTGTKEAVDELTEKLRQDGFAIAGEPRMTGDGYYESVVLDPEGNRIEITW” as the sequence, how does the protein production read?
**A.** The protein production was “not failed”.

**Q.** For “MKIFKKSDISGIFHELGILISTIGFIMLLPSFIGIYFHEPFFYFLFPSLFFMILGLLINKITKPISVKLKHAMVISALAWLMASLIGAIPFYIGIEYFSYLDGVFESMSAWTTTGFSIVGDVESLPRTLQFWRSFEQWIGGVGVLAMVITILSKAGASAYYRAEAREEKIMPSTIGTIKKIWQIYLLYTTIGICLLYLSGLNLWSALNICMCGISTGGMSISNQSFPFNNFAKIIMTLIMYIGGVVSFSVHHNVLTGRRVDDIQTKTSIPILFFAAFVITLTSGIDPLDSLFTVVSAMTSTGFSSVQISSLTNISIAVLIFVMAIGGATGTTTGGIKLIRLVIMAKGFYYRLKEVVSPGNAIIYKKIGKNQLSDFLILDAFIIAFAYIIHYLFGTLVLISLGYDPFLSVFESVSLVANMGLSVDIVNHSLHPIAKILGVFSMWVGRLEIIPIYVLIILPLYLKLKDVGKNKISKNRKL”, which protein production is on record?
**A.** Its protein production is “failed”.

**Q.** Which protein production does the source give for “MKIGIVIPAHNEEQHLSACLQSIQQAIQHTGHEQVEILVVLDSCTDQSRSVVESHQVNWIECNFACVGKARDLGIRQLIDQGVIWVACTDADTIVDSDWILCQMLHQPTDAICGVVTLDDLSHLSVQQQQKYLAHYQDSMDHQHIHGANLSFSAEAYIQAGGFEPIPCHEDVSLIEKFIKQCCKVTRSNLVRVTTSSRLNGRAPEGLSYFLKHL” here?
**A.** Its protein production is “failed”.

**Q.** With “MKIINIGVLAHVDAGKTTLTESLLYTSGAIAESGSVDTGTTRTDTTFLERQRGITIQTAVTSFQWKDIKVNIIDTPGHMDFLAEVYRSLSVLDGAILLISARDGVQAQTRILFHALNKMGIPTIFFINKIDQNGIDLSTVYQDIKEKLSMEIIIKQKVELHPNMCVMSCTEPEQWDVVIEGNDYLLEKYTLGKSLEILELEQEEIRRFQNCSLYPVYHGSAKSNIGIEQLIEVITNKFYSSTYRKKSELCGNVFKIEYSEERQRLAYVRLYGGILHLRDSVRISEKEKIKITEMYTSINGELCKIDKAYSGEIVILQNEFLKLNSVLGDTKLLPQRERIENPLPLLQTTVEPSKPQQREMLLDALLEISDSDPLLQYYVDSTTHEIILSFLGKVQMEVTCALLQEKYHVEVKIKKPTVIYMERPLKKAEYTIHIEVPPNPFWASIGLSVAPLPLGSGVQYESSVSLGYLNQSFQNAVMEGIRYGCEQGLYGWNVTDCKICFKYGLYYSPVSTPADFRMLAPIVLEQVLKKAGTELLEPYLSFKIYAPQEYLSRAYNDAPKYCANIVDTQLKNNEVILSGEIPARCIQEYRNDLTFFTNGRSVCLTELKGYYVTTGESVCQPRRPNSRIDKVRYMFNKIT” as the sequence, how does the protein production read?
**A.** The protein production was “failed”.

**Q.** With “MKIITIEEHFESEVITNEINKVTGNLVSGQVSPEMFQYMQKELPSAMEMQDTEKRLAFMDQHGIDMQVLSYGNSSPQNLGPKISVALCKRANDELAKVIQQNPTRFAGFAVLPVGSPEDAAIELKRAVEELGFKGALVKGQFENKYFDNSFYYPIFEMAEKLDVPISFHPSFIPEPITEQYFASDAWSDVVTGVFSSAGFGWHMDVGIQVVRMILSGIFDKLPNLKIITGHLGEMVPMFLNRMDDTLGHWTTLERKISDYYRTNVYVTPSGLLYKNEWKFLLNELDENHLIYALDYPFVKTENAGTFLDTLDLTDEVKAKIAHENAEKLLHL” as the sequence, how does the protein production read?
**A.** The protein production was “not failed”.

**Q.** With “MKILNIFDAVRDGTFQDFKNFYEGNINVISGNLDLNLLCMAVTNDKNPEEKLQIIKFLFAEGIDVNYATQKEKRNALHLFYFCVLRPTIEYEMEITNLFIKHGVNVNATDKYNAIPLKYAITINNLPTSDNKEMYQLLLNKGSDYNLKDGFGKSCLDYAKEYSWRNDFLDIVKEYENSKK” as the sequence, how does the protein production read?
**A.** Its protein production is “failed”.

**Q.** For “MKILSIHDLQIIRKRAEHHLSLREESNEKVSEKCCGLASGTTHLQILICGGTGCKASSSQGITENLQKAIERNGITDKVDVITVGCFGFCEKGPIVKIIPDNTFYTQVTPEDAEEIISEHIIGGRRIERLLYIDPKTEQTVSDSKHMDFYRKQLRIALRNCGFIDSENIEEYIAREGYFALADCLLNKQPADVIDIIKRSGLRGRGGGGFPTGLKWEFASKQVSNVKYVVCNADEGDPGAFMDRSIMEGDPHSIVEAMCICGYSIGSSKGLVYIRAEYPLAINRLKKAIEQAREYGLLGDHILGTDFSFDIEIRYGAGAFVCGEETALIHSMEGKRGEPTLKPPFPAESGYLGKPTNVNNVETLANIPIILTKGAEWFASIGTERSKGTKVFALAGKINNVGLIEVPMGTTLREVIYEIGGGIKGGKKFKAVQTGGPSGGCLTEKHLDTPIDFDNLLAAGSMMGSGGMIVMDEDDCMVSVARFYLDFTVEESCGKCTPCRIGNKRLLELLNKITEGRGTEKDLDTLATLGRVIKDTALCGLGQTSPNPVLSTLDNFRDEYLEHVRDKTCRAKQCKSLLTYTINPELCIGCHLCAKNCPADAISGLVRKPHVIHPEKCIKCGMCMARCKFKAILVC”, which protein production is on record?
**A.** The protein production was “failed”.

**Q.** Which protein production does the source give for “MKILVIGAGPAGLVFASQLKQARPLWAIDIVEKNDEQEVLGWGVVLPGRPGQHPANPLSYLDAPERLNPQFLEDFKLVHHNEPSLMSTGVLLCGVERRGLVHALRDKCRSQGIAIRFESPLLEHGELPLADYDLVVLANGVNHKTAHFTEALVPQVDYGRNKYIWYGTSQLFDQMNLVFRTHGKDIFIAHAYKYSDTMSTFIVECSEETYARARLGEMSEEASAEYVAKVFQAELGGHGLVSQPGLGWRNFMTLSHDRCHDGKLVLLGDALQSGHFSIGHGTTMAVVVAQLLVKALCTEDGVPAALKRFEERALPLVQLFRGHADNSRVWFETVEERMHLSSAEFVQSFDARRKSLPPMPEALAQNLRYALQRLEHHHHHH” here?
**A.** Its protein production is “not failed”.

**Q.** With “MKILYIVLDGAADSPTSPRKTLEEASKPNIDSLGSHAVCGMVYTVKPGVAPQSDYATLSLLGYNPDEYYPGRGPLEAFGAGIEMRRGDIALRANFATVDPGTLRIIDRRVGRSLTSREARELASAVDGMELEDGEGTALFRATIGHRGVLVLRHRSKPLSDAISNTDPAYERRGRFSVALEKYEPFIKLSNPLVEDEAAVLAARMLNEFTLKAVEILDSHPVNLAREKRGLLKANAILSRDAGGLPEEKPPSFQERFGLRGASIVEMVVERGISRYIGLDDIRVEIEGRAREEVYREEAARAVEALETHDLVYVHLKGPDEPGHDGSFEGKIRAVEDIDKHFFAPLLDRLSSAGLEPAFVVTSDHATPWDVGAHSGDPVPLMISHQSIQ” as the sequence, how does the protein production read?
**A.** The protein production was “failed”.

**Q.** With “MKINKIDTRHGTANQSTFSHGNCLPYTGFPWGMNYFSPSTGAARGAWWFHPEDRTFEGYRITHQPSPWMGDFSHLTMTPVAGPLPETSLWHTVSSYRPEESTFNPTQLKITQLRYQITSQLIPSMYGGILSMNYQNLSLKDNGLMLHLPGSYELQQLDDYSLELSIINFAGCEDENFTFYLKFTADQPFVLSGNLSDEDSSVRLDFKAAKQVQIHFATSFISKEQAALNLEREQDNSAETYLENAESAWNNLFSRIEIEHHNQQEVSTFYHNLYRSFLFPQTFYEFDQEHQKIHYDTSSKTVKKGPLYTNNGFWDTFRTVYPLYSLIAVDEYGDMLEGFLNSYRATGFLPKWLSPDERGLMPGTLIDAVIADAASKNIRPDLMPEFLEAMKKGATSQSENSNYGRRGTKDYLKLGYVPLTHHESVNHTLDYAFSDYCISQVAKQTGDKEISDFYAHQAKDYQNIFDSETGFMRAKDADGNFRADFLDIRWGRDYAEGSAWQTSWSVLHDFAGLIKLHGSRENFENKLIELCNQRPNFNVEGYGFEIHEMSEMAAIEFGQVAISNQPSFHYPYLFSYIGKPWMATPLIKNLLTETFNDSPKGYPGDEDNGTMAAWYIFSSLGFYPVTAASNQYVLGIPLWDKARINLSSGQQLTILAEPNAPQQVFVNQITFTDKKVNDTFIKHEELIKGGTLKFDLGIVPNPLKYTNEQLPYSLTEN” as the sequence, how does the protein production read?
**A.** Its protein production is “failed”.

**Q.** For “MKIQDLLRKDIMILDLQAISKEVAIDEMITKLVEKDIVHDFDVFKKSIMTREEQTSTGLGDGIAMPHSKNIVVDKPAVLFAKSNKGVDYKALDGQPTDLFFMIAAPQGANDTHLAALAELSQYLLKDGFADKLRAAATPEAVIAVFDEASTAKEEV”, which protein production is on record?
**A.** Its protein production is “failed”.
